Reference: PMC5973687 (mAbs, 2018)

T1: DcR3-Fc (UniProt O95407 30-300)
T1 sequence (looked up): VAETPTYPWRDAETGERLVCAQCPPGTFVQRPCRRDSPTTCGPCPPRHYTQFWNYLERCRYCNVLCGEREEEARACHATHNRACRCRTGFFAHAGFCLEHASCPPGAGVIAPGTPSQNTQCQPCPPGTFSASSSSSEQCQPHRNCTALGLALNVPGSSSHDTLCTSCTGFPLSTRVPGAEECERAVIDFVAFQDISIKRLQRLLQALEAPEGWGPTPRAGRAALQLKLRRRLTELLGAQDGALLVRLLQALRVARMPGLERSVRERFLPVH


Experiments:
DR3-Fc = DR3-Fc (UniProt Q93038); assay: ELISA
DcR3-Fc = biological target: T1, DcR3-Fc; assay: ELISA

DR3-Fc, sequence (Q93038 25-199): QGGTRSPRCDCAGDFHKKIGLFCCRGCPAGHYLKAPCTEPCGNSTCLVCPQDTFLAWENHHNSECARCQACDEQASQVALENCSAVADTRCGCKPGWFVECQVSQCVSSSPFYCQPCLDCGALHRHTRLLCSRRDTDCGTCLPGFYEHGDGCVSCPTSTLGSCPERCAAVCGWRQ

Molecule | decrease in binding against wild-type TL1A (DR3-Fc) | binding result (DcR3-Fc)
TL1A-R32A (ligand) | 50% | 
human TL1A (extracellular domain, recombinant) (ligand, UniProt O95150 57-251, looked up, biotin (single-site biotinylated, site not stated) in the competition ELISA) SQLRAQGEACVQFQALKGQEFAPSHQQVYAPLRADGDKPRAHLTVVRQTPTQHFKNQFPALHWEHELGLAFTKNRMNYTNKFLLIPESGDYFIYSQVTFRGMTSECSEIRQAGRPNKPDSITVVITKVTDSYPEPTQLLMGTKSVCEVGSNWFQPIYLGAMFSLQEGDKLMVNVSDISLVDYTKEDKTFFGAFLL |  | binds
